Data on 18 substances can be found in patent US11306156.

The target in assay [1] is D3H44 light chain Q124E_Q160E_T180E (Kabat) with N-terminal HA or FLAG tag. Description: LCCA, SPR read-out of light-chain tags; light-chain DNA 1:3 normalized to 1:1; competing light chain m20.
Assay [2] has the same target. The experiment in a line: LCCA, SPR read-out of light-chain tags; light-chain DNA 1:3 normalized to 1:1; competing light chain m18.
For assay [3] the target is unchanged. Description: LCCA, SPR read-out of light-chain tags; light-chain DNA 1:3 normalized to 1:1; competing light chain m21.
Assay [4] shares this target. Description: LCCA, SPR read-out of light-chain tags; light-chain DNA 1:9 normalized to 1:1; competing light chain m21.
Assay [5] concerns the target D3H44 light chain Q124R_T178R (Kabat) with N-terminal HA or FLAG tag. Description: LCCA, SPR read-out of light-chain tags; light-chain DNA 1:3 normalized to 1:1; competing light chain m17.
For assay [6], the target named is D3H44 light chain Q124K_T178R (Kabat) with N-terminal HA or FLAG tag. The description is as above.
In assay [7] the target is D3H44 light chain Q124R_Q160K_T178R (Kabat) with N-terminal HA or FLAG tag. Described as above.
Assay [8] addresses D3H44 light chain T178R (Kabat) with N-terminal HA or FLAG tag. The assay is described as above.
Assay [9] has as its target D3H44 light chain Q124R_T178R (Kabat) with N-terminal HA or FLAG tag. Description: LCCA, SPR read-out of light-chain tags; light-chain DNA 1:9 normalized to 1:1; competing light chain m17.
For assay [10], the target named is D3H44 light chain Q124E_Q160E_T180E (Kabat) with N-terminal HA or FLAG tag. The experiment in a line: LCCA, SPR read-out of light-chain tags; light-chain DNA 1:3 normalized to 1:1; competing light chain m16.
Assay [11] concerns the target D3H44 light chain Q124R_T178R (Kabat) with N-terminal HA or FLAG tag. Description: LCCA, SPR read-out of light-chain tags; light-chain DNA 1:3 normalized to 1:1; competing light chain m22.
Assay [12] deals with D3H44 light chain Q124E_S131T_T178F_T180E (Kabat) with N-terminal HA or FLAG tag. The experiment in a line: LCCA, SPR read-out of light-chain tags; light-chain DNA 1:3 normalized to 1:1; competing light chain m21.
The target of assay [13] is tissue factor (TF) antigen (UniProt P13726). Description: SPR; Fab captured by anti-His, TF as analyte; LCCA set 9054. (In general: In SPR one partner is held on a chip, and binding of the other changes the refractive index at the surface.)
For assay [14] the target is unchanged. The experiment in a line: SPR; Fab captured by anti-His, TF as analyte; LCCA set 9053.
Assay [15] has the same target. The experiment in a line: SPR; Fab captured by anti-His, TF as analyte; LCCA set 9058.
Assay [16] shares this target. Description: SPR; Fab captured by anti-His, TF as analyte; LCCA set 9060.
Assay [17] shares this target. Description: SPR; Fab captured by anti-His, TF as analyte; LCCA set 10549.
Assay [18] has the same target. Description: SPR; Fab captured by anti-His, TF as analyte; LCCA set 10549 (identifier in reverse orientation, assigned by Table 12).
The target is the same in assay [19]. The experiment in a line: SPR; Fab captured by anti-His, TF as analyte; LCCA set 9746.
The target is the same in assay [20]. Description: SPR; Fab captured by anti-His, TF as analyte; LCCA set 9104; estimated from the Fab differing only in L chain tag.
Assay [21] shares this target. The experiment in a line: SPR; Fab captured by anti-His, TF as analyte; LCCA set 9116.
The target is the same in assay [22]. The experiment in a line: SPR; Fab captured by anti-His, TF as analyte; LCCA set 9347.
Assay [23] has the same target. The experiment in a line: SPR; Fab captured by anti-His, TF as analyte; LCCA set 9375.
Assay [24] shares this target. The experiment in a line: SPR; Fab captured by anti-His, TF as analyte; LCCA set 9374.
Assay [25] has the same target. Description: SPR (ProteOn), Fab captured on anti-penta-His, TF as analyte, 1:1 fit.
For assay [26] the target is unchanged. The experiment in a line: SPR (ProteOn), Fab captured on anti-penta-His, TF as analyte, 1:1 fit; estimated value (*) taken from the same Fab with another L chain tag.
Assay [27] has the same target. The experiment in a line: SPR; Fab captured by anti-His, TF as analyte; LCCA set 9813.
For assay [28] the target is unchanged. The experiment in a line: SPR; Fab captured by anti-His, TF as analyte; LCCA set 9814.
For assay [29] the target is unchanged. The experiment in a line: SPR; Fab captured by anti-His, TF as analyte; LCCA set 9819.
Assay [30] has the same target. Description: SPR; Fab captured by anti-His, TF as analyte; LCCA set 9820.
Assay [31] shares this target. The experiment in a line: SPR; Fab captured by anti-His, TF as analyte; LCCA set 9822.
For assay [32] the target is unchanged. Description: SPR; Fab captured by anti-His, TF as analyte; LCCA set 9823.
The target is the same in assay [33]. Description: SPR; Fab captured by anti-His, TF as analyte; LCCA set 9824.

On to “D3H44 Fab heavy chain L143E_K145T_Q179D (Kabat) with C-terminal ABD2-His6 tag”, for which the H1L1:H1L2 normalized median ratio amounted to 16% in assay [1]; 24% in assay [2]; 13% in assay [3]; 18% in assay [4]; 87% in assay [5]; 86% in assay [6]. Further, the H1L1:H1L2 normalized median ratio in assay [7] is 84%; in [8], 76%; in assay [9], 82%; in assay [10], 14%. The H1L1:H1L2 normalized median scalar value ln(r1/f1) in [5] stood at 1.9; in assay [6], 1.78; in [7], 1.68; in assay [8], 1.13; in [9], 1.55.

Turning to “D3H44 Fab heavy chain L143E_K145T_Q179E_S188L (Kabat) with C-terminal ABD2-His6 tag”, the figures for the H1L1:H1L2 normalized median ratio in [11] and in assay [12] were 77% and 23%, respectively. The H1L1:H1L2 normalized median scalar value ln(r1/f1) in [11] was determined as 1.19.

Usually Kd stands for the equilibrium constant for the complex coming apart. As to “D3H44 Fab heterodimer, H A139G_Q179K_V190A / L Q124E_L135W_Q160E_T180E (H1L1 Fab of LCCA sets 9053, 9054)”, the Change in KD with respect to wild type (-(log(KD design) - log(KD wt))) in assay [13] and in assay [14] was 0.05 each time. Further, the Kd in [13] and in assay [14] was 0.14 nM throughout.

In [15], “D3H44 Fab heterodimer, H A139W_L143E_K145T_Q179E / L F116A_Q124R_L135V (H1L1 Fab of LCCA set 9058)” gave a Change in KD with respect to wild type (-(log(KD design) - log(KD wt))) of 0.12 and a Kd of 0.12 nM.

In assay [16], “D3H44 Fab heterodimer, H A139W_L143E_K145T_Q179E / L F116A_Q124R_L135V_T178R (H1L1 Fab of LCCA set 9060)” gave a Change in KD with respect to wild type (-(log(KD design) - log(KD wt))) of 0.04 and a Kd of 0.14 nM.

Take “D3H44 Fab heterodimer, H L45P_K145T_Q179E / L P44F_S131K (H1L1 Fab of LCCA sets 9746, 10549)”: the Change in KD with respect to wild type (-(log(KD design) - log(KD wt))) in [17], in assay [18] and in [19] was -0.35 each time. Besides, the Kd in assay [17], in assay [18] and in assay [19] was 0.35 nM throughout.

For “D3H44 Fab heterodimer, H L124E / L S131T_V133G_S176R_T178Y (H1L1 Fab of LCCA set 9104)”, in [20], the Change in KD with respect to wild type (-(log(KD design) - log(KD wt))) was -0.01 and the Kd was 0.16 nM.

For “D3H44 Fab heterodimer, H L124E_A139W / L F116A_V133G_L135V_S176R (H1L1 Fab of LCCA set 9116)”, in assay [21], the Change in KD with respect to wild type (-(log(KD design) - log(KD wt))) is -0.02 and the Kd was 0.16 nM.

As for “D3H44 Fab heterodimer, H L124R_A125R_H172T / L V133G_N137K_S174R_S176D (H1L1 Fab of LCCA set 9347)”, in [22], the Change in KD with respect to wild type (-(log(KD design) - log(KD wt))) was -0.16 and the dissociation constant (Kd) came out at 0.23 nM.

In the case of “D3H44 Fab heterodimer, H L124R_H172T / L V133G_N137K_S174R_S176D (H1L1 Fab of LCCA sets 9374, 9375)”, in assay [23], the Change in KD with respect to wild type (-(log(KD design) - log(KD wt))) was -0.16 and the Kd worked out at 0.23 nM. Besides, in assay [24], the Change in KD with respect to wild type (-(log(KD design) - log(KD wt))) is -0.16 and the equilibrium dissociation constant (Kd) was found to be 0.23 nM.

In assay [25], “D3H44 Fab heterodimer, H L143E_K145T_S188L / L Q124R” yielded a Change in KD with respect to wild type (-(log(KD design) - log(KD wt))) of -0.12 and a Kd of 0.21 nM. In [26], the Change in KD with respect to wild type (-(log(KD design) - log(KD wt))) was -0.12 and the Kd was 0.21 nM.

In [27], “D3H44 Fab heterodimer, H Q39E_K145T_H172R_Q179E / L Q38R_S131K (H1L1 Fab of LCCA set 9813)” displayed a Change in KD with respect to wild type (-(log(KD design) - log(KD wt))) of -0.05 and a Kd of 0.18 nM.

In assay [28], “D3H44 Fab heterodimer, H Q39E_K145T_Q179E / L Q38R_S131K (H1L1 Fab of LCCA set 9814)” returned a Change in KD with respect to wild type (-(log(KD design) - log(KD wt))) of -0.01 and a dissociation constant Kd of 0.16 nM.

Consider “D3H44 Fab heterodimer, H Q39E_L143E_K145T_H172R_Q179E / L Q38R_Q124R_Q160K_T178R (H1L1 Fab of LCCA set 9819)”, for which, in [29], the Change in KD with respect to wild type (-(log(KD design) - log(KD wt))) worked out at 0.03 and the dissociation constant (Kd) stood at 0.15 nM.

In [30], “D3H44 Fab heterodimer, H Q39E_L143E_K145T_Q179E / L Q38R_Q124R_Q160K_T178R (H1L1 Fab of LCCA set 9820)” had a Change in KD with respect to wild type (-(log(KD design) - log(KD wt))) of -0.1 and an equilibrium dissociation constant (Kd) of 0.2 nM.

With “D3H44 Fab heterodimer, H Q39R_D146G_Q179K / L Q38E_Q124E_Q160E_T180E (H1L1 Fab of LCCA set 9822)”, in [31], the Change in KD with respect to wild type (-(log(KD design) - log(KD wt))) is 0.17 and the dissociation constant Kd came out at 0.11 nM.

In assay [32], “D3H44 Fab heterodimer, H Q39R_H172R_Q179K / L Q38E_Q124E_Q160E_T180E (H1L1 Fab of LCCA set 9823)” showed a Change in KD with respect to wild type (-(log(KD design) - log(KD wt))) of -0.18 and a dissociation constant (Kd) of 0.24 nM.

In assay [33], “D3H44 Fab heterodimer, H Q39R_H172R_S186R / L Q38E_Q124E_Q160E_T180E (H1L1 Fab of LCCA set 9824)” came in with a Change in KD with respect to wild type (-(log(KD design) - log(KD wt))) of 0.03 and a dissociation constant Kd of 0.15 nM.
